Measured values reported in the RNAGym collection of RNA variant scans (doi:10.7554/elife.80360).

B1: Hairpin Ribozyme (parent)
chain: GUCCUCUUUCACGUGCGCGUGAAAGAGAGAAGUGAACCAGAGAAACACACGUUGUGGUAUAUUACCUGGUA

Variants of: B1
Assay: self-cleavage, relative activity (ratio to wild type); higher = more cleavage; co-transcriptional

In order of rising self-cleavage:
1. GUCCUCUUUCACGUGCGCGUGAAAGAGAGUAGUGAACCAGAGAAACACACGUUGAGGUAUAUUACCUGGUA  0.0256
2. GUCCUCUUUCACGUGCGCGUGAAAGAGAGACGUGAACCAGAGAAACACACGUUGUGGUAUAUUAACUGGUA  0.0267
3. GUCCUCUUUCACGUGCGCGUGAAAGAGAGACGUGAACCAGCGAAACACACGUUGUGGUAUAUUACCUGGUA  0.0332
4. GUCCUCUUUCACGUGCGCGUGAAAGAGAGUAGUGAACCAGAGAAACACACGUUGUGGUAUAUUACCUGCUA  0.0465
5. GUCCUCUUUCACGUGCGCGUGAAAGAGAGACGUGAAACAGAGAAACACACGUUGUGGUAUAUUACCUGGUA  0.0507
6. GUCCUCUUUCACGUGCGCGUGAAAGAGAGACGUUAACCAGAGAAACACACGUUGUGGUAUAUUACCUGGUA  0.0576
7. GUCCUCUUUCACGUGCGCGUGAAAGAGAGACGUGAACCAGAGAAACACACGUUGAGGUAUAUUACCUGGUA  0.0627
8. GUCCUCUUUCACGUGCGCGUGAAAGAGAGUAGAGAACCAGAGAAACACACGUUGUGGUAUAUUACCUGGUA  0.0677
9. GUCCUCUUUCACGUGCGCGUGAAAGAGAGACGUGCACCAGAGAAACACACGUUGUGGUAUAUUACCUGGUA  0.069
10. GUCCUCUUUCACGUGCGCGUGAAAGAGAGUAGUGAACAAGAGAAACACACGUUGUGGUAUAUUACCUGGUA  0.0692
11. GUCCUCUUUCACGUGCGCGUGAAAGAGAGACGUGAACCAGAGAAACACACGGUGUGGUAUAUUACCUGGUA  0.0727
12. GUCCUCUUUCACGUGCGCGUGAAAGAGAGACGUGAACCAGAGAAACACACGUUGUGGUAUAUUGCCUGGUA  0.0732
13. GUCCUCUUUCACGUGCGCGUGAAAGAGAGUAGUGAACCAGAGAAACACACGUUGUGGUAUAUGACCUGGUA  0.0835
14. GUCCUCUUUCACGUGCGCGUGAAAGAGAGACGUGAACCAGAGAAACACACGUUGUGGUAUAUUAUCUGGUA  0.0838
15. GUCCUCUUUCACGUGCGCGUGAAAGAGAGACGUGAUCCAGAGAAACACACGUUGUGGUAUAUUACCUGGUA  0.0851
16. GUCCUCUUUCACGUGCGCGUGAAAGAGAGACGUGAACCAGAGAACCACACGUUGUGGUAUAUUACCUGGUA  0.0871
17. GUCCUCUUUCACGUGCGCGUGAAAGAGAGUAGUGAACCAGAGAAACACACGGUGUGGUAUAUUACCUGGUA  0.0874
18. GUCCUCUUUCACGUGCGCGUGAAAGAGAGACGUGAACCAGAGAAACACACGUUGUGGUAUGUUACCUGGUA  0.0877
19. GUCCUCUUUCACGUGCGCGUGAAAGAGAGUAUUGAACCAGAGAAACACACGUUGUGGUAUAUUACCUGGUA  0.0889
20. GUCCUCUUUCACGUGCGCGUGAAAGAGAGUAGUGAACCAAAGAAACACACGUUGUGGUAUAUUACCUGGUA  0.0894
21. GUCCUCUUUCACGUGCGCGUGAAAGAGAGACGUGAACCAGAGUAACACACGUUGUGGUAUAUUACCUGGUA  0.0953
22. GUCCUCUUUCACGUGCGCGUGAAAGAGAGUAGUGAACCAGAGAAACACACGUUGUGGUAUAUUACAUGGUA  0.096
23. GUCCUCUUUCACGUGCGCGUGAAAGAGAGUAGUGAACCAGAGAAAUACACGUUGUGGUAUAUUACCUGGUA  0.0965
24. GUCCUCUUUCACGUGCGCGUGAAAGAGAGACGUGAACCAGAGAAACACACGUUGUGGUAUAUUACCUGCUA  0.0986
25. GUCCUCUUUCACGUGCGCGUGAAAGAGAGUAGUGAACCAGAGAAACACACGUUGUGAUAUAUUACCUGGUA  0.0986
26. GUCCUCUUUCACGUGCGCGUGAAAGAGAGACGUGAACCAGAGAAACACACGUUGUGGUAUAUUACCUGGCA  0.0987
27. GUCCUCUUUCACGUGCGCGUGAAAGAGAGACGUGAACCAGAGAAACACACGUUGUGGUAUAUUACCUGGUU  0.1
28. GUCCUCUUUCACGUGCGCGUGAAAGAGAGACGUGAACCAGAGAAACACACGUUGUGGUAUAUUACGUGGUA  0.102
29. GUCCUCUUUCACGUGCGCGUGAAAGAGAGACGUGAACCAGAGAAACACACGUUGUGGUCUAUUACCUGGUA  0.103
30. GUCCUCUUUCACGUGCGCGUGAAAGAGAGUAGUGAACCAGAGAAACACACGUUGGGGUAUAUUACCUGGUA  0.106
31. GUCCUCUUUCACGUGCGCGUGAAAGAGAGUAGUGAACCAGAGAAACACACGUUGUGGUAUAGUACCUGGUA  0.108
32. GUCCUCUUUCACGUGCGCGUGAAAGAGAGUAGUGAACGAGAGAAACACACGUUGUGGUAUAUUACCUGGUA  0.108
33. GUCCUCUUUCACGUGCGCGUGAAAGAGAGACGUGAACCAGAGAUACACACGUUGUGGUAUAUUACCUGGUA  0.109
34. GUCCUCUUUCACGUGCGCGUGAAAGAGAGUAGUGAACCAGACAAACACACGUUGUGGUAUAUUACCUGGUA  0.114
35. GUCCUCUUUCACGUGCGCGUGAAAGAGAGUAGUGAACCAGAGAAACACACGUUGUGGUAUAUUACCUGGGA  0.117
36. GUCCUCUUUCACGUGCGCGUGAAAGAGAGACGUGAACCAGAGAAACACACGUUGUGGUAUAUGACCUGGUA  0.119
37. GUCCUCUUUCACGUGCGCGUGAAAGAGAGUAGUGAACCAGAUAAACACACGUUGUGGUAUAUUACCUGGUA  0.119
38. GUCCUCUUUCACGUGCGCGUGAAAGAGAGACGUGAACCAGAGAAACACACGUUGUGGUAUAAUACCUGGUA  0.12
39. GUCCUCUUUCACGUGCGCGUGAAAGAGAGACGUGAACCAGAGAAACACACGUUGUGGUAUAUUACCUUGUA  0.122
40. GUCCUCUUUCACGUGCGCGUGAAAGAGAGACGUGAACCAGAGAAACACACGUAGUGGUAUAUUACCUGGUA  0.126
41. GUCCUCUUUCACGUGCGCGUGAAAGAGAGACGUCAACCAGAGAAACACACGUUGUGGUAUAUUACCUGGUA  0.127
42. GUCCUCUUUCACGUGCGCGUGAAAGAGAGACGUGAACCAGAGAAACACACGUUGUGGUGUAUUACCUGGUA  0.132
43. GUCCUCUUUCACGUGCGCGUGAAAGAGAGACGUGAAUCAGAGAAACACACGUUGUGGUAUAUUACCUGGUA  0.134
44. GUCCUCUUUCACGUGCGCGUGAAAGAGAGACGUGAACCAGAGAAACACACGUUGUGGUAUAUUACCUCGUA  0.135
45. GUCCUCUUUCACGUGCGCGUGAAAGAGAGUAGUGAACCAGAGAAACACACGCUGUGGUAUAUUACCUGGUA  0.135
46. GUCCUCUUUCACGUGCGCGUGAAAGAGAGUAGUGAACCAGAGAAACACACGUAGUGGUAUAUUACCUGGUA  0.138
47. GUCCUCUUUCACGUGCGCGUGAAAGAGAGACGUGAACCAGAGAAACACAAGUUGUGGUAUAUUACCUGGUA  0.139
48. GUCCUCUUUCACGUGCGCGUGAAAGAGAGACGUGAACAAGAGAAACACACGUUGUGGUAUAUUACCUGGUA  0.141
49. GUCCUCUUUCACGUGCGCGUGAAAGAGAGUAGUGAACCAGAGAAACACACGUUGUGGUAUACUACCUGGUA  0.144
50. GUCCUCUUUCACGUGCGCGUGAAAGAGAGACGUGAACCAGAGAAACACACGUUGUGGUAUAUUACAUGGUA  0.146
51. GUCCUCUUUCACGUGCGCGUGAAAGAGAGACGUGAACCAGAGAAACACACGUUGUAGUAUAUUACCUGGUA  0.148
52. GUCCUCUUUCACGUGCGCGUGAAAGAGAGACGUGAACCAGAGAAACACACUUUGUGGUAUAUUACCUGGUA  0.149
53. GUCCUCUUUCACGUGCGCGUGAAAGAGAGACGUGAACCAGAGAAACACACGUUGUGGUAUAUUACCUAGUA  0.152
54. GUCCUCUUUCACGUGCGCGUGAAAGAGAGACGUGAACCAGAGAAACAUACGUUGUGGUAUAUUACCUGGUA  0.159
55. GUCCUCUUUCACGUGCGCGUGAAAGAGAGACGUGAACCAGAAAAACACACGUUGUGGUAUAUUACCUGGUA  0.164
56. GUCCUCUUUCACGUGCGCGUGAAAGAGAGUAGUGAACCAGAGAAACACACCUUGUGGUAUAUUACCUGGUA  0.164
57. GUCCUCUUUCACGUGCGCGUGAAAGAGAGUAGUGAACCAGAGAAACACACGUUGUGGUAUAUUACGUGGUA  0.165
58. GUCCUCUUUCACGUGCGCGUGAAAGAGAGACAUGAACCAGAGAAACACACGUUGUGGUAUAUUACCUGGUA  0.173
59. GUCCUCUUUCACGUGCGCGUGAAAGAGAGACGUGAACCAGAGAGACACACGUUGUGGUAUAUUACCUGGUA  0.174
60. GUCCUCUUUCACGUGCGCGUGAAAGAGAGUAGUGAACCAGAGAAACACACGUUGUGUUAUAUUACCUGGUA  0.175
61. GUCCUCUUUCACGUGCGCGUGAAAGAGAGUAGUGAACCAGAGAAACACACGUUGUGGUAUAAUACCUGGUA  0.177
62. GUCCUCUUUCACGUGCGCGUGAAAGAGAGACGUGUACCAGAGAAACACACGUUGUGGUAUAUUACCUGGUA  0.181
63. GUCCUCUUUCACGUGCGCGUGAAAGAGAGUAAUGAACCAGAGAAACACACGUUGUGGUAUAUUACCUGGUA  0.183
64. GUCCUCUUUCACGUGCGCGUGAAAGAGAGUAGUGAACCAGAGAAACACACUUUGUGGUAUAUUACCUGGUA  0.193
65. GUCCUCUUUCACGUGCGCGUGAAAGAGAGACGUGAACCAGAGAAACACACGUUGUGGUAGAUUACCUGGUA  0.194
66. GUCCUCUUUCACGUGCGCGUGAAAGAGAGACGUGAACGAGAGAAACACACGUUGUGGUAUAUUACCUGGUA  0.196
67. GUCCUCUUUCACGUGCGCGUGAAAGAGAGUAGUGAACCAGAGAAACAUACGUUGUGGUAUAUUACCUGGUA  0.197
68. GUCCUCUUUCACGUGCGCGUGAAAGAGAGUAGUGAAUCAGAGAAACACACGUUGUGGUAUAUUACCUGGUA  0.206
69. GUCCUCUUUCACGUGCGCGUGAAAGAGAGACGUGAACCAGAGAAACACACGUUGUGGUAUAUCACCUGGUA  0.23
70. GUCCUCUUUCACGUGCGCGUGAAAGAGAGUAGUGAACUAGAGAAACACACGUUGUGGUAUAUUACCUGGUA  0.232
71. GUCCUCUUUCACGUGCGCGUGAAAGAGAGACGAGAACCAGAGAAACACACGUUGUGGUAUAUUACCUGGUA  0.241
72. GUCCUCUUUCACGUGCGCGUGAAAGAGAGUAGUGAACCAGAGAAACACACGUGGUGGUAUAUUACCUGGUA  0.277
73. GUCCUCUUUCACGUGCGCGUGAAAGAGAGACUUGAACCAGAGAAACACACGUUGUGGUAUAUUACCUGGUA  0.348
74. GUCCUCUUUCACGUGCGCGUGAAAGAGAGUAGUCAACCAGAGAAACACACGUUGUGGUAUAUUACCUGGUA  0.42
75. GUCCUCUUUCACGUGCGCGUGAAAGAGAGAGGUGCACCAGAGAAACACACGUUGUGGUAUAUUACCUGGUA  0.6
76. GUCCUCUUUCACGUGCGCGUGAAAGAGAGUAGUUAACCAGAGAAACACACGUUGUGGUAUAUUACCUGGUA  0.805
